{
  "source": "patent US10464978B2",
  "about": "“Peptides and combination of peptides for use in immunotherapy against ovarian cancer and other cancers” (immatics biotechnologies GmbH, priority 2015, dated 2019)",
  "data": [
    {"molecular_target": "HLA-A*02:01 (Homo sapiens, UniProt P04439, D140Y/D185E/D98H/E176V/E277Q/G131W/G231S/I119V/I121R/I166T/I218V/L300P/L318F/N151K/N90K/P208A/P217A/Q86G/Q94H/R138H/R169H/T345S)", "test": "MHC binding assay: UV-ligand exchange with beta2m ELISA (peptide exchange yield)", "details": "binding to HLA-A*02:01", "text": "Candidate peptides for T cell based therapies according to the present invention were further tested for their MHC binding capacity (affinity). The individual peptide-MHC complexes were produced by UV-ligand exchange, where a UV-sensitive peptide is cleaved upon UV-irradiation, and exchanged with the peptide of interest as analyzed. Only peptide candidates that can effectively bind and stabilize the peptide-receptive MHC molecules prevent dissociation of the MHC complexes. To determine the yield of the exchange reaction, an ELISA was performed based on the detection of the light chain ([…]) of stabilized MHC complexes. The assay was performed as generally described in Rodenko et al. (Rodenko et al., 2006).\n96 well MAXISorp plates (NUNC) were coated over night with 2 ug/ml streptavidin in PBS at room temperature, washed 4× and blocked for 1 h at 37° C. in 2% BSA containing blocking buffer. […] Peptide-MHC monomers of the UV-exchange reaction were diluted 100 fold in blocking buffer. Samples were incubated for 1h at 37° C., washed four times, incubated with 2 ug/ml HRP conjugated anti-β2m for 1h at 37° C., washed again and detected with TMB solution that is stopped with […]. Absorption was measured at 450 nm. Candidate peptides that show a high exchange yield (preferably higher than 50%, most preferred higher than 75%) are generally preferred for a generation and production of antibodies or fragments thereof, and/or T cell receptors or fragments thereof, as they show sufficient avidity to the MHC molecules and prevent dissociation of the MHC complexes.", "values": [
      {"substance": "1 (SLMEPPAVLLL; listed as Homo sapiens) [compound 1]", "Peptide exchange (MHC class I binding score, peptide exchange yield)": "“+++” (≥50 = +++)"},
      {"substance": "2 (SLLEADPFL; listed as Homo sapiens) [compound 2]", "Peptide exchange (MHC class I binding score, peptide exchange yield)": "“+++” (≥50 = +++)"},
      {"substance": "3 (SLASKLTTL; listed as Homo sapiens) [compound 3]", "Peptide exchange (MHC class I binding score, peptide exchange yield)": "“++++” (≥75% = ++++)"},
      {"substance": "4 (GIMEHITKI; listed as Homo sapiens) [compound 4]", "Peptide exchange (MHC class I binding score, peptide exchange yield)": "“++++” (≥75% = ++++)"},
      {"substance": "5 (HLTEVYPEL; listed as Homo sapiens) [compound 5]", "Peptide exchange (MHC class I binding score, peptide exchange yield)": "“+++” (≥50 = +++)"},
      {"substance": "6 (VLVSDGVHSV; listed as Homo sapiens) [compound 6]", "Peptide exchange (MHC class I binding score, peptide exchange yield)": "“+++” (≥50 = +++)"},
      {"substance": "7 (SLVGLLLYL; listed as Homo sapiens) [compound 7]", "Peptide exchange (MHC class I binding score, peptide exchange yield)": "“++++” (≥75% = ++++)"},
      {"substance": "8 (FTLGNVVGMYL; listed as Homo sapiens) [compound 8]", "Peptide exchange (MHC class I binding score, peptide exchange yield)": "“++++” (≥75% = ++++)"},
      {"substance": "9 (GAAKDLPGV; listed as Homo sapiens) [compound 9]", "Peptide exchange (MHC class I binding score, peptide exchange yield)": "“++” (≥20% = ++)"},
      {"substance": "10 (FLATFPLAAV; listed as Homo sapiens) [compound 10]", "Peptide exchange (MHC class I binding score, peptide exchange yield)": "“++++” (≥75% = ++++)"},
      {"substance": "11 (KIFEMLEGV; listed as Homo sapiens) [compound 11]", "Peptide exchange (MHC class I binding score, peptide exchange yield)": "“+++” (≥50 = +++)"},
      {"substance": "12 (SLWPDPMEV; listed as Homo sapiens) [compound 12]", "Peptide exchange (MHC class I binding score, peptide exchange yield)": "“+++” (≥50 = +++)"},
      {"substance": "13 (YLMDESLNL; listed as Homo sapiens) [compound 13]", "Peptide exchange (MHC class I binding score, peptide exchange yield)": "“+++” (≥50 = +++)"},
      {"substance": "14 (AAYGGLNEKSFV; listed as Homo sapiens) [compound 14]", "Peptide exchange (MHC class I binding score, peptide exchange yield)": "“+++” (≥50 = +++)"},
      {"substance": "15 (VLLTFKIFL; listed as Homo sapiens) [compound 15]", "Peptide exchange (MHC class I binding score, peptide exchange yield)": "“++” (≥20% = ++)"},
      {"substance": "16 (VLFQGQASL; listed as Homo sapiens) [compound 16]", "Peptide exchange (MHC class I binding score, peptide exchange yield)": "“+++” (≥50 = +++)"},
      {"substance": "17 (GLLPGDRLVSV; listed as Homo sapiens) [compound 17]", "Peptide exchange (MHC class I binding score, peptide exchange yield)": "“+++” (≥50 = +++)"},
      {"substance": "18 (YLVAKLVEV; listed as Homo sapiens) [compound 18]", "Peptide exchange (MHC class I binding score, peptide exchange yield)": "“++” (≥20% = ++)"},
      {"substance": "19 (FMVDNEAIYDI; listed as Homo sapiens) [compound 19]", "Peptide exchange (MHC class I binding score, peptide exchange yield)": "“++++” (≥75% = ++++)"},
      {"substance": "20 (RMIEYFIDV; listed as Homo sapiens) [compound 20]", "Peptide exchange (MHC class I binding score, peptide exchange yield)": "“+++” (≥50 = +++)"},
      {"substance": "21 (VLDELDMEL; listed as Homo sapiens) [compound 21]", "Peptide exchange (MHC class I binding score, peptide exchange yield)": "“++” (≥20% = ++)"},
      {"substance": "22 (IMEENPGIFAV; listed as Homo sapiens) [compound 22]", "Peptide exchange (MHC class I binding score, peptide exchange yield)": "“+++” (≥50 = +++)"},
      {"substance": "23 (VLLDDIFAQL; listed as Homo sapiens) [compound 23]", "Peptide exchange (MHC class I binding score, peptide exchange yield)": "“+++” (≥50 = +++)"},
      {"substance": "24 (SLSDGLEEV; listed as Homo sapiens) [compound 24]", "Peptide exchange (MHC class I binding score, peptide exchange yield)": "“++” (≥20% = ++)"},
      {"substance": "25 (FLPDEPYIKV; listed as Homo sapiens) [compound 25]", "Peptide exchange (MHC class I binding score, peptide exchange yield)": "“+++” (≥50 = +++)"},
      {"substance": "26 (ALLELAEEL; listed as Homo sapiens) [compound 26]", "Peptide exchange (MHC class I binding score, peptide exchange yield)": "“+++” (≥50 = +++)"},
      {"substance": "27 (ILADIVISA; listed as Homo sapiens) [compound 27]", "Peptide exchange (MHC class I binding score, peptide exchange yield)": "“+++” (≥50 = +++)"},
      {"substance": "28 (QLLDETSAITL; listed as Homo sapiens) [compound 28]", "Peptide exchange (MHC class I binding score, peptide exchange yield)": "“+++” (≥50 = +++)"},
      {"substance": "29 (KMLGIPISNILMV; listed as Homo sapiens) [compound 29]", "Peptide exchange (MHC class I binding score, peptide exchange yield)": "“+++” (≥50 = +++)"},
      {"substance": "30 (LILDWVPYI; listed as Homo sapiens) [compound 30]", "Peptide exchange (MHC class I binding score, peptide exchange yield)": "“+++” (≥50 = +++)"},
      {"substance": "31 (YLAPELFVNV; listed as Homo sapiens) [compound 31]", "Peptide exchange (MHC class I binding score, peptide exchange yield)": "“++” (≥20% = ++)"},
      {"substance": "32 (KLDDLTQDLTV; listed as Homo sapiens) [compound 32]", "Peptide exchange (MHC class I binding score, peptide exchange yield)": "“++” (≥20% = ++)"},
      {"substance": "33 (VLLSLLEKV; listed as Homo sapiens) [compound 33]", "Peptide exchange (MHC class I binding score, peptide exchange yield)": "“++” (≥20% = ++)"},
      {"substance": "34 (ILVEADSLWVV; listed as Homo sapiens) [compound 34]", "Peptide exchange (MHC class I binding score, peptide exchange yield)": "“+++” (≥50 = +++)"},
      {"substance": "35 (KINDTIYEV; listed as Homo sapiens) [compound 35]", "Peptide exchange (MHC class I binding score, peptide exchange yield)": "“+++” (≥50 = +++)"},
      {"substance": "36 (YVLEDLEVTV; listed as Homo sapiens) [compound 36]", "Peptide exchange (MHC class I binding score, peptide exchange yield)": "“++” (≥20% = ++)"},
      {"substance": "38 (FLLEDDIHVS; listed as Homo sapiens) [compound 38]", "Peptide exchange (MHC class I binding score, peptide exchange yield)": "“+++” (≥50 = +++)"},
      {"substance": "39 (SVAPNLPAV; listed as Homo sapiens) [compound 39]", "Peptide exchange (MHC class I binding score, peptide exchange yield)": "“+++” (≥50 = +++)"},
      {"substance": "40 (TLLVKVFSV; listed as Homo sapiens) [compound 40]", "Peptide exchange (MHC class I binding score, peptide exchange yield)": "“+++” (≥50 = +++)"},
      {"substance": "41 (SLMPHIPGL; listed as Homo sapiens) [compound 41]", "Peptide exchange (MHC class I binding score, peptide exchange yield)": "“+++” (≥50 = +++)"},
      {"substance": "42 (VLLQKIVSA; listed as Homo sapiens) [compound 42]", "Peptide exchange (MHC class I binding score, peptide exchange yield)": "“+++” (≥50 = +++)"},
      {"substance": "43 (VLSSLEINI; listed as Homo sapiens) [compound 43]", "Peptide exchange (MHC class I binding score, peptide exchange yield)": "“++” (≥20% = ++)"},
      {"substance": "44 (ILDPISSGFLL; listed as Homo sapiens) [compound 44]", "Peptide exchange (MHC class I binding score, peptide exchange yield)": "“++” (≥20% = ++)"},
      {"substance": "45 (SLWQDIPDV; listed as Homo sapiens) [compound 45]", "Peptide exchange (MHC class I binding score, peptide exchange yield)": "“+++” (≥50 = +++)"},
      {"substance": "46 (ILTEENIHL; listed as Homo sapiens) [compound 46]", "Peptide exchange (MHC class I binding score, peptide exchange yield)": "“+++” (≥50 = +++)"},
      {"substance": "47 (ILLSVPLLVV; listed as Homo sapiens) [compound 47]", "Peptide exchange (MHC class I binding score, peptide exchange yield)": "“++” (≥20% = ++)"},
      {"substance": "48 (ALAELYEDEV; listed as Homo sapiens) [compound 48]", "Peptide exchange (MHC class I binding score, peptide exchange yield)": "“+++” (≥50 = +++)"},
      {"substance": "49 (YLPAVFEEV; listed as Homo sapiens) [compound 49]", "Peptide exchange (MHC class I binding score, peptide exchange yield)": "“+++” (≥50 = +++)"},
      {"substance": "50 (SLSELEALM; listed as Homo sapiens) [compound 50]", "Peptide exchange (MHC class I binding score, peptide exchange yield)": "“+++” (≥50 = +++)"},
      {"substance": "51 (LLPDLEFYV; listed as Homo sapiens) [compound 51]", "Peptide exchange (MHC class I binding score, peptide exchange yield)": "“++++” (≥75% = ++++)"},
      {"substance": "52 (FLLAHGLGFLL; listed as Homo sapiens) [compound 52]", "Peptide exchange (MHC class I binding score, peptide exchange yield)": "“++++” (≥75% = ++++)"},
      {"substance": "53 (KMIETDILQKV; listed as Homo sapiens) [compound 53]", "Peptide exchange (MHC class I binding score, peptide exchange yield)": "“++++” (≥75% = ++++)"},
      {"substance": "54 (SLLEQGKEPWMV; listed as Homo sapiens) [compound 54]", "Peptide exchange (MHC class I binding score, peptide exchange yield)": "“+++” (≥50 = +++)"},
      {"substance": "55 (SLLDLETLSL; listed as Homo sapiens) [compound 55]", "Peptide exchange (MHC class I binding score, peptide exchange yield)": "“++++” (≥75% = ++++)"},
      {"substance": "56 (KLYEGIPVLL; listed as Homo sapiens) [compound 56]", "Peptide exchange (MHC class I binding score, peptide exchange yield)": "“++++” (≥75% = ++++)"},
      {"substance": "57 (TLAELQPPVQL; listed as Homo sapiens) [compound 57]", "Peptide exchange (MHC class I binding score, peptide exchange yield)": "“+++” (≥50 = +++)"},
      {"substance": "59 (IMEDIILTL; listed as Homo sapiens) [compound 59]", "Peptide exchange (MHC class I binding score, peptide exchange yield)": "“+++” (≥50 = +++)"},
      {"substance": "60 (SLTIDGIYYV; listed as Homo sapiens) [compound 60]", "Peptide exchange (MHC class I binding score, peptide exchange yield)": "“++++” (≥75% = ++++)"},
      {"substance": "61 (FLQGYQLHL; listed as Homo sapiens) [compound 61]", "Peptide exchange (MHC class I binding score, peptide exchange yield)": "“++++” (≥75% = ++++)"},
      {"substance": "62 (VLLDVSAGQLLM; listed as Homo sapiens) [compound 62]", "Peptide exchange (MHC class I binding score, peptide exchange yield)": "“++++” (≥75% = ++++)"},
      {"substance": "63 (YLLPSGGSVTL; listed as Homo sapiens) [compound 63]", "Peptide exchange (MHC class I binding score, peptide exchange yield)": "“++” (≥20% = ++)"},
      {"substance": "64 (YAAPGGLIGV; listed as Homo sapiens) [compound 64]", "Peptide exchange (MHC class I binding score, peptide exchange yield)": "“++” (≥20% = ++)"},
      {"substance": "66 (FLDENIGGVAV; listed as Homo sapiens) [compound 66]", "Peptide exchange (MHC class I binding score, peptide exchange yield)": "“+++” (≥50 = +++)"}
    ]}
  ]
}
